B1: Adapter molecule crk (Homo sapiens), P46108-1 (parent)
chain: MAGNFDSEERSSWYWGRLSRQEAVALLQGQRHGVFLVRDSSTSPGDYVLSVSENSRVSHYIINSSGPRPPVPPSPAQPPPGVSPSRLRIGDQEFDSLPALLEFYKIHYLDTTTLIEPVSRSRQGSGVILRQEEAEYVRALFDFNGNDEEDLPFKKGDILRIRDKPEEQWWNAEDSEGKRGMIPVPYVEKYRPASASVSALIGGNQEGSHPQPLGGPEPGPYAQPSVNTPLPNLQNGPIYARVIQKRVPNAYDKTALALEVGELVKVTKINVSGQWEGECNGKRGHFPFTHVRLLDQQNPDEDFS

Variants of: B1
Conditions: with ppia_human PPIA

| Variant | effect of a mutation on the interaction |
| --- | --- |
| P218F | increasing interaction strength |

Variants of: B1
Conditions: with ppia_human PPIA
Remark: another data set of the same source

| Variant | effect of a mutation on the interaction |
| --- | --- |
| P220A | disrupting interaction strength |

Source: IntAct's records for PubMed 26656091
